Substrate in data set [1]: O=C(O)c1ccc(C(=O)OCCO)cc1
In words: MHET hydrolysis kinetics. The format is biochemical, unidentified prokaryotic organism. Conditions: conditions in supplement; pH 7.5; 50.0 °C. An excerpt:
MHET hydrolysis kinetics on LCC-ICCG | (LCC-ICCG and FAST-PETase) had weak catalytic activities with regard to the hydrolysis of MHET

Substrate in data set [2]: O=C(O)c1ccc(C(=O)OCCO)cc1
The experiment in a line: initial rates, TPA by HPLC, Michaelis-Menten fit. The note with it: 50 mM sodium phosphate, pH 7.5, 50 °C, M3. The format is biochemical, Geobacillus stearothermophilus. The source says: initial rates, TPA by HPLC, Michaelis-Menten fit on Est30 (1TQH scaffold; wild-type carboxylesterase) | single variants M1 (G130L) and M3 (G130F) (Table S13) had improved catalytic efficiencies

Substrate in data set [3]: O=C(O)c1ccc(C(=O)OCCO)cc1
In words: initial rates, TPA by HPLC, Michaelis-Menten fit. The format is biochemical, Geobacillus stearothermophilus. The note with it: 50 mM sodium phosphate, pH 7.5, 50 °C, 10 min, 0.5 μM enzyme.

Substrate in data set [4]: O=C(O)c1ccc(C(=O)OCCO)cc1
In words: initial rates, TPA by HPLC, Michaelis-Menten fit. It is filed as biochemical, Geobacillus stearothermophilus. The note with it: 50 mM sodium phosphate, pH 7.5, 50 °C, 10 min, 0.5 μM enzyme. The source says:
initial rates, TPA by HPLC, Michaelis-Menten fit on Est30 (1TQH scaffold; wild-type carboxylesterase)
The source holds these as a separate data set.

Substrate in data set [5]: O=C(O)c1ccc(C(=O)OCCO)cc1
The experiment in a line: initial rates, TPA by HPLC, Michaelis-Menten fit. It is filed as biochemical, Pseudideonella sakaiensis. The note with it: 50 mM sodium phosphate, pH 7.5, 50 °C.

As usually defined, the Km is the substrate concentration at which the rate is half of its maximum. The term kcat denotes the maximal rate divided by the concentration of active sites. Usually kcat/Km stands for the turnover number divided by the Michaelis constant.

B1: LCC-ICCG (unidentified prokaryotic organism; D238C/F243I/S283C/Y127G) (protein)
chain: QSNPYQRGPNPTRSALTADGPFSVATYTVSRLSVSGFGGGVIYYPTGTSLTFGGIAMSPGYTADASSLAWLGRRLASHGFVVLVINTNSRFDGPDSRASQLSAALNYLRTSSPSAVRARLDANRLAVAGHSMGGGGTLRIAEQNPSLKAAVPLTPWHTDKTFNTSVPVLIVGAEADTVAPVSQHAIPFYQNLPSTTPKVYVELCNASHIAPNSNNAAISVYTISWMKLWVDNDTRYRQFLCNVNDPALCDFRTNNRHCQ
As for B1, in data set [1], the Michaelis constant (Km) was found to be 20.13 ± 3.69 mM and the catalytic constant (kcat) was 1.41 ± 0.13 s⁻¹.

B2: Est30 (1TQH scaffold; wild-type carboxylesterase) (Geobacillus stearothermophilus; G129F) (protein)
chain: MKIVPPKPFFFEAGERAVLLLHGFTGNSADVRMLGRFLESKGYTCHAPIYKGHGVPPEELVHTGPDDWWQDVMNGYEFLKNKGYEKIAVAGLSLGGVFSLKLGYTVPIEGIVTMCAPMYIKSEETMYEFVLEYAREYKKREGKSEEQIEQEMEKFKQTPMKTLKALQELIADVRDHLDLIYAPTFVVQARHDEMINPDSANIIYNEIESPVKQIKWYEQSGHVITLDQEKDQLHEDIYAFLESLDW
notes: E. coli BL21(DE3), pET-22b(+) NdeI/XhoI, C-terminal His6 tag kept, HisTrap purified
B2: in data set [2], the Km was 1.12 ± 0.45 mM and the kcat is 0.75 ± 0.05 s⁻¹.

B3: Est30 (1TQH scaffold; wild-type carboxylesterase) (Geobacillus stearothermophilus; G129L/I170K) (protein)
chain: MKIVPPKPFFFEAGERAVLLLHGFTGNSADVRMLGRFLESKGYTCHAPIYKGHGVPPEELVHTGPDDWWQDVMNGYEFLKNKGYEKIAVAGLSLGGVFSLKLGYTVPIEGIVTMCAPMYIKSEETMYELVLEYAREYKKREGKSEEQIEQEMEKFKQTPMKTLKALQELKADVRDHLDLIYAPTFVVQARHDEMINPDSANIIYNEIESPVKQIKWYEQSGHVITLDQEKDQLHEDIYAFLESLDW
notes: as for B2
With B3, in data set [3] (M8 (KL-MHETase)), the Km is 4.56 ± 0.75 mM, the kcat turned out to be 21.4 ± 1.12 s⁻¹ and the catalytic efficiency (kcat/Km) was found to be 4700 M⁻¹ s⁻¹.

B4: Est30 (1TQH scaffold; wild-type carboxylesterase) (Geobacillus stearothermophilus; I170K) (protein)
chain: MKIVPPKPFFFEAGERAVLLLHGFTGNSADVRMLGRFLESKGYTCHAPIYKGHGVPPEELVHTGPDDWWQDVMNGYEFLKNKGYEKIAVAGLSLGGVFSLKLGYTVPIEGIVTMCAPMYIKSEETMYEGVLEYAREYKKREGKSEEQIEQEMEKFKQTPMKTLKALQELKADVRDHLDLIYAPTFVVQARHDEMINPDSANIIYNEIESPVKQIKWYEQSGHVITLDQEKDQLHEDIYAFLESLDW
notes: as for B2
Regarding B4, in data set [3] (M2, substrate range 2-20 mM), the Michaelis constant (Km) is recorded as 53.70 ± 34.77 mM, the kcat turned out to be 36 ± 18.2 s⁻¹ and the kcat/Km stood at 670 M⁻¹ s⁻¹.

B5: Est30 (1TQH scaffold; wild-type carboxylesterase) (Geobacillus stearothermophilus; G129F/I170K/M126S) (protein)
chain: MKIVPPKPFFFEAGERAVLLLHGFTGNSADVRMLGRFLESKGYTCHAPIYKGHGVPPEELVHTGPDDWWQDVMNGYEFLKNKGYEKIAVAGLSLGGVFSLKLGYTVPIEGIVTMCAPMYIKSEETSYEFVLEYAREYKKREGKSEEQIEQEMEKFKQTPMKTLKALQELKADVRDHLDLIYAPTFVVQARHDEMINPDSANIIYNEIESPVKQIKWYEQSGHVITLDQEKDQLHEDIYAFLESLDW
notes: as for B2
Take B5: in data set [3] (M13), the Michaelis-Menten constant (Km) is 2.59 ± 0.41 mM, the turnover number (kcat) is 21 ± 0.83 s⁻¹ and the kcat/Km was found to be 8110 M⁻¹ s⁻¹.

B6: Est30 (1TQH scaffold; wild-type carboxylesterase) (Geobacillus stearothermophilus; G129L) (protein)
chain: MKIVPPKPFFFEAGERAVLLLHGFTGNSADVRMLGRFLESKGYTCHAPIYKGHGVPPEELVHTGPDDWWQDVMNGYEFLKNKGYEKIAVAGLSLGGVFSLKLGYTVPIEGIVTMCAPMYIKSEETMYELVLEYAREYKKREGKSEEQIEQEMEKFKQTPMKTLKALQELIADVRDHLDLIYAPTFVVQARHDEMINPDSANIIYNEIESPVKQIKWYEQSGHVITLDQEKDQLHEDIYAFLESLDW
notes: as for B2
In the case of B6, in data set [4] (M1), the Km was determined as 5.36 ± 1.13 mM, the kcat worked out at 2.97 ± 0.21 s⁻¹ and the specificity constant (kcat/Km) is 550 M⁻¹ s⁻¹.

B7: Est30 (1TQH scaffold; wild-type carboxylesterase) (Geobacillus stearothermophilus) (protein)
chain: MKIVPPKPFFFEAGERAVLLLHGFTGNSADVRMLGRFLESKGYTCHAPIYKGHGVPPEELVHTGPDDWWQDVMNGYEFLKNKGYEKIAVAGLSLGGVFSLKLGYTVPIEGIVTMCAPMYIKSEETMYEGVLEYAREYKKREGKSEEQIEQEMEKFKQTPMKTLKALQELIADVRDHLDLIYAPTFVVQARHDEMINPDSANIIYNEIESPVKQIKWYEQSGHVITLDQEKDQLHEDIYAFLESLDW
notes: as for B2
Regarding B7, in data set [4], the Km is listed as 8.98 ± 2.49 mM, the kcat was determined as 1.17 ± 0.14 s⁻¹ and the specificity constant (kcat/Km) was 130 M⁻¹ s⁻¹.

B8: Est30 (1TQH scaffold; wild-type carboxylesterase) (Geobacillus stearothermophilus; G129L/I170K/M126S) (protein)
chain: MKIVPPKPFFFEAGERAVLLLHGFTGNSADVRMLGRFLESKGYTCHAPIYKGHGVPPEELVHTGPDDWWQDVMNGYEFLKNKGYEKIAVAGLSLGGVFSLKLGYTVPIEGIVTMCAPMYIKSEETSYELVLEYAREYKKREGKSEEQIEQEMEKFKQTPMKTLKALQELKADVRDHLDLIYAPTFVVQARHDEMINPDSANIIYNEIESPVKQIKWYEQSGHVITLDQEKDQLHEDIYAFLESLDW
notes: as for B2
Consider B8, for which, in data set [3] (M14 (KLS-MHETase)), the Km is recorded as 1.73 ± 0.24 mM, the kcat was found to be 21.8 ± 0.62 s⁻¹ and the kcat/Km came out at 12600 M⁻¹ s⁻¹.

B9: FAST-PETase (Pseudideonella sakaiensis; D186H/N233K/R224Q/R280A/S121E) (protein)
chain: QTNPYARGPNPTAASLEASAGPFTVRSFTVSRPSGYGAGTVYYPTNAGGTVGAIAIVPGYTARQSSIKWWGPRLASHGFVVITIDTNSTLDQPESRSSQQMAALRQVASLNGTSSSPIYGKVDTARMGVMGWSMGGGGSLISAANNPSLKAAAPQAPWHSSTNFSSVTVPTLIFACENDSIAPVNSSALPIYDSMSQNAKQFLEIKGGSHSCANSGNSNQALIGKKGVAWMKRFMDNDTRYSTFACENPNSTAVSDFRTANCS
Regarding B9, in data set [5], the Km is 33.87 ± 2.82 mM and the kcat is 2.34 ± 0.14 s⁻¹.
